Assay [1] addresses trkB receptor. As to the kind of experiment: cell-based or functional assay.
Assay [2] addresses human trkC receptor protein (human, UniProt Q16288 32-839). As to the kind of experiment: cell-based or functional assay.

Numbering of substitutions follows the chain as printed. In names and notes the source's numbering stands.

Sequence of human trkC receptor protein (Q16288 32-839): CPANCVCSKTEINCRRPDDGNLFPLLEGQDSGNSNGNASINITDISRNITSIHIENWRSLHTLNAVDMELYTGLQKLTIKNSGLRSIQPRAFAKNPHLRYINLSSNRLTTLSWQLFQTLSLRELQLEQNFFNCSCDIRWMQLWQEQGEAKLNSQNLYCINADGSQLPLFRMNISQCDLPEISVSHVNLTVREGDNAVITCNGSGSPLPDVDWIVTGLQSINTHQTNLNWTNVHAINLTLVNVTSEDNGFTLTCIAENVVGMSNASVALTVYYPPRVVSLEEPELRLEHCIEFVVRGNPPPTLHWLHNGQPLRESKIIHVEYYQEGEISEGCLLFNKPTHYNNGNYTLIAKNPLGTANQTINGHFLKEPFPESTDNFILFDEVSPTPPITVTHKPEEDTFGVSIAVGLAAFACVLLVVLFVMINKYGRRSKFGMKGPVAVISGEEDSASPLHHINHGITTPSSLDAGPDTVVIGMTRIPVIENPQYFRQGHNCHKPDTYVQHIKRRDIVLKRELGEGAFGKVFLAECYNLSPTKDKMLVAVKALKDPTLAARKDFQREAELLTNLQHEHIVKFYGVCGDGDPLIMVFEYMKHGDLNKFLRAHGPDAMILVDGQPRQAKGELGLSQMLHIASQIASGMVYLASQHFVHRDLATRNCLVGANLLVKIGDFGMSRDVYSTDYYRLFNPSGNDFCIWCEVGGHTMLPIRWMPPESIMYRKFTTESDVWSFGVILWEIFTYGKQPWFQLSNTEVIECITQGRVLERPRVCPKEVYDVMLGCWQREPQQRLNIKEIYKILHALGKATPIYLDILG

In turn, “BDNF, K65D, K73D, K95A, R97A (from UniProt P23560 129-247) (ligand)” displayed a Bioactivity (mg/mg), MTS mitogenic bioassay in assay [1] of 1.24 mg/mg.

In assay [1], “BDNF, P60E, K65D, K73D, K95A (from UniProt P23560 129-247) (ligand)” displayed a Bioactivity (mg/mg), MTS mitogenic bioassay of 0.61 mg/mg.

For “Wild type BDNF (from UniProt P23560 129-247) (ligand)”, the Bioactivity (mg/mg), MTS mitogenic bioassay in assay [1] turned out to be 0.61 mg/mg.

B1: NT-3(1-117)R61A,K64D (ligand)
chain: MYAEHKSHRGEYSVCDSESLWVTDKSSAIDIRGHQVTVLGEIKTGNSPVKQYFYETRCKEAAPVDNGCRGIDDKHWNSQCKTSQTYVRALTSENNKLVGWRWIRIDTSCVCALSRKIG
Take B1: the “Percentage of expected activity (%), in vitro mitogenic bioassay” value (from here on “Percentage of expected activity (%)”) in assay [2] came out at 328%.

B2: wild type human NT-3 (r-metHuNT-3) (ligand)
chain: MYAEHKSHRGEYSVCDSESLWVTDKSSAIDIRGHQVTVLGEIKTGNSPVKQYFYETRCKEARPVKNGCRGIDDKHWNSQCKTSQTYVRALTSENNKLVGWRWIRIDTSCVCALSRKIGRT
As for B2, the “Percentage of expected activity (%)” value in assay [2] is 72%.

B3: NT-3(1-119)R61A,K64D (ligand)
chain: B2 chain with R62A, K65D
Take B3: the “Percentage of expected activity (%)” value in assay [2] is 524%.

The values above are taken from patent US20020010135A1 (Amgen, published 2002).
